Here are results for 2 molecules from publication PMC10167121, “Completing the TRB family: newly characterized members show ancient evolutionary origins and distinct localization, yet similar interactions”.

For series [1], the target named is T1, TRB4 (Arabidopsis thaliana, UniProt F4I7L1 1-296).
T1 sequence: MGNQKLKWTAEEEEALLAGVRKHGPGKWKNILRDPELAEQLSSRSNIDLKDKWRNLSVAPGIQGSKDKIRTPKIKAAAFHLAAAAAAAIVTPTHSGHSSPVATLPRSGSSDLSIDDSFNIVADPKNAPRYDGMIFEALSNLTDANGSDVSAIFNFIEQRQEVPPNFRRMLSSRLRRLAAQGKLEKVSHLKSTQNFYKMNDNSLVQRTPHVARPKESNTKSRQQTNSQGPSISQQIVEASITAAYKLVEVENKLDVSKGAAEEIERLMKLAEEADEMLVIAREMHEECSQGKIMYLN
Nature of the series: EMSA; non-telomeric competitor 1-100x; 10 mM Tris-HCl pH 8.0, 1 mM EDTA, 1 mM DTT, 50 mM NaCl, 5% glycerol; 10 pmol protein, 1 pmol probe, on ice 20 min; 7.5% PAGE, 0.5x TBE, 15 C. Conditions: protein: recombinant; tags: His-tag (pHGWA); chain copies: 2; label: 32P 5'-end; blunt. For orientation: A gel shift assay detects complexes by their altered migration in electrophoresis.

Series [2] has as its target T2, TRB5 (Arabidopsis thaliana (Col-0), UniProt F4IEY4 1-287).
T2 sequence: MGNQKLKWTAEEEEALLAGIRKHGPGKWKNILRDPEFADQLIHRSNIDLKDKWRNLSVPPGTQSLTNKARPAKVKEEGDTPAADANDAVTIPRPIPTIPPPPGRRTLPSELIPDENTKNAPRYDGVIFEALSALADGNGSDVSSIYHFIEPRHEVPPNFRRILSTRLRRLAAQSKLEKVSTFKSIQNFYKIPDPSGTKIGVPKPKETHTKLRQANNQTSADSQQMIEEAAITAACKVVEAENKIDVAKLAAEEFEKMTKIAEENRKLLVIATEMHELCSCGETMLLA
Described as above. To be noted: protein: recombinant; tags: His-tag (pHGWA); chain copies: 2; label: 32P 5'-end; blunt.

Series [3] concerns the target T1, TRB4. Nature of the series: EMSA; high-molecular-weight complex not entering the gel; resists 100x non-telomeric competitor; 10 mM Tris-HCl pH 8.0, 1 mM EDTA, 1 mM DTT, 50 mM NaCl, 5% glycerol; 10 pmol protein, 1 pmol probe, on ice 20 min; 7.5% PAGE, 0.5x TBE, 15 C. To be noted: protein: recombinant; tags: His-tag (pHGWA); chain copies: 2; label: 32P 5'-end; blunt.

Series [4] addresses T2, TRB5. Described as above. To be noted: protein: recombinant; tags: His-tag (pHGWA); chain copies: 2; label: 32P 5'-end; blunt.
For another series, the target named is T3, TRB1 (Arabidopsis thaliana, UniProt Q8VWK4 1-300).
T3 sequence: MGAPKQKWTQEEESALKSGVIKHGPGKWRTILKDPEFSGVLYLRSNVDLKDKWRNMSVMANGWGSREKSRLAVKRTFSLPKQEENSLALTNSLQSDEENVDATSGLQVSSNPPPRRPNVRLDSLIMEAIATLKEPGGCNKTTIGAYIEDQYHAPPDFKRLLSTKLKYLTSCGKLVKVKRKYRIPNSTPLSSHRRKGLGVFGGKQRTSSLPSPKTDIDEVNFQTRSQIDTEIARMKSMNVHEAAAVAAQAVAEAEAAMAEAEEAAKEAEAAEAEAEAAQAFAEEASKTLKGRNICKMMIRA
The series is described as above. Conditions: protein: recombinant; tags: His-tag (pHGWA); label: 32P 5'-end; blunt.

B1: telo-box (dsDNA)
DNA 1: TTTTTCACGAAAACCCTAATCGCAGTCG
DNA 2: CGACTGCGATTAGGGTTTTCGTGAAAAA
As for B1, the binding result in the series with TRB4 [1] and with TRB5 [2] was “binds” throughout.

B2: telomeric (four plant telomeric repeats) (dsDNA)
DNA 1: AAACCCTAAACCCTAAACCCTAAACCCT
DNA 2: AGGGTTTAGGGTTTAGGGTTTAGGGTTT
For the molecule B2, the binding result with TRB4 [3], in the series with TRB5 [4] and in the series with TRB1 was “binds” throughout.
